Kd data for one molecule are collected here from patent publication US20220332804A1 (CSL INNOVATION, published 2022).

Assay in all cases: SPR, antibody captured, C2 as analyte;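 note: biacore at 37 °C, anti-C2 mAbs held by immobilised goat anti-human IgG, C2 alanine or serine mutants injected, double-referenced sensorgrams fitted to a 1:1 kinetic or steady-state model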
Assay [1] concerns the target T1, human C2 F270A (human, UniProt P06681 21-752).
T1 sequence: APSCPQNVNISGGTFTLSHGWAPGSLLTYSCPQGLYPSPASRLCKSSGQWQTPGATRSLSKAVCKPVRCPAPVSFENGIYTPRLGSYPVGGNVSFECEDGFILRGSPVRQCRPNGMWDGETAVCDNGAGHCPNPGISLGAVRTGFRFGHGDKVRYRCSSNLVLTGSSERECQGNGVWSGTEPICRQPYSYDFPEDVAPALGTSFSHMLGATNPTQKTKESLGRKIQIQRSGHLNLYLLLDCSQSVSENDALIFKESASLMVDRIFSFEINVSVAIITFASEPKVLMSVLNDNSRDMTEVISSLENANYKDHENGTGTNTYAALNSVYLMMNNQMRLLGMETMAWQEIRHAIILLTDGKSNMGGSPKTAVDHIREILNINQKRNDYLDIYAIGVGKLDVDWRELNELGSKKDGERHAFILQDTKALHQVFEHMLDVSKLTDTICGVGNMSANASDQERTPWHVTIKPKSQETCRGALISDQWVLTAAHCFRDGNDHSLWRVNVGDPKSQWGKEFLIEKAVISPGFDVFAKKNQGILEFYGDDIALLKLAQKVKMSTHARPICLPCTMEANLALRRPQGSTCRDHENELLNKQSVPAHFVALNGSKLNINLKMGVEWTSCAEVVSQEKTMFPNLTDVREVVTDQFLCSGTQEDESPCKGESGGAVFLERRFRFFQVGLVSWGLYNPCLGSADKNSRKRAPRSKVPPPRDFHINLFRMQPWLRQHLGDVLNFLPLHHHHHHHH
Experimental: (§1) Surface plasmon resonance (SPR, Biacore) was used for all binding affinity analyses. In brief, goat anti-human IgG was directly immobilised onto the carboxymethyl dextran surface of CM5 sensorchips to approximately 12,000 RU using standard NHS/EDC chemistry at pH 5. The immobilised antibody surface was pre-conditioned with ten injections of polyclonal human IgG (Privigen 60 s) prepared at 1 μg/mL. Ligands (anti-C2 mAbs) were captured at the beginning of each cycle as described below. An adjacent spot or flow cell in which only Polyclonal IgG was capture was used as a reference surface. The goat anti-human IgG Fc antibody surface was regenerate in 100 mM H3PO4, injected for 45 seconds at the end of each cycle. Experiments were performed at 37° C. and the flow rate of each experiment was kept constant at 30 μL/min.
(§2) Sensogram data was double-referenced against a reference anti-IgG surface (i.e. minus anti-C2 mAb) and blank buffer injections obtained within each experiment. The binding data was fit to 1:1 (kinetic or steady-state) model using local Rmax and null refraction index (RI=0) when appropriate. Buffers and solutions were filtered (0.22 μm) prior to use.

Assay [2] concerns the target T2, human C2 E324A (human, UniProt P06681 21-752).
T2 sequence: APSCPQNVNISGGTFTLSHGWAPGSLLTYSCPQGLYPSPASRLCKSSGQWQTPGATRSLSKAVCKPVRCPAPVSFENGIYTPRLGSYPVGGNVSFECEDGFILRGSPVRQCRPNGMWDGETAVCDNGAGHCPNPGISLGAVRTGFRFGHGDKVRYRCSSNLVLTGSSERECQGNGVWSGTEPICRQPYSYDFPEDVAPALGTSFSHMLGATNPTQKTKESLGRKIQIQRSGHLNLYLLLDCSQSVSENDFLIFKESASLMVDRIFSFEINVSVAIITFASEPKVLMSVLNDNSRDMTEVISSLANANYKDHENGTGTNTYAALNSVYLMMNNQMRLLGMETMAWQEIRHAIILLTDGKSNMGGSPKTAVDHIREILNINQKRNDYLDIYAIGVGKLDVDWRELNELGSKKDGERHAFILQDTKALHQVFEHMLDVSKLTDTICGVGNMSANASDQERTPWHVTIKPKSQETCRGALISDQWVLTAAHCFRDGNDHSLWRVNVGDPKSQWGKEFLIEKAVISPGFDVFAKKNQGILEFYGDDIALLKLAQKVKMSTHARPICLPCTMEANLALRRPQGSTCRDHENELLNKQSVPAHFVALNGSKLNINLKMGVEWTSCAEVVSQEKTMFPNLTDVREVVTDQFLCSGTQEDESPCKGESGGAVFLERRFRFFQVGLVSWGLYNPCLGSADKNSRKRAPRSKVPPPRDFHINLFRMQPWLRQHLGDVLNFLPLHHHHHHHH
Experimental: as §1, §2

Assay [3] deals with T3, human complement C2 (wild type) (human, UniProt P06681 21-752).
T3 construct: Full-length human C2 (NP_000054) with C-terminal 8x His tag, secreted from Expi293F cells and purified from the supernatant; also called WT; huC2
T3 sequence: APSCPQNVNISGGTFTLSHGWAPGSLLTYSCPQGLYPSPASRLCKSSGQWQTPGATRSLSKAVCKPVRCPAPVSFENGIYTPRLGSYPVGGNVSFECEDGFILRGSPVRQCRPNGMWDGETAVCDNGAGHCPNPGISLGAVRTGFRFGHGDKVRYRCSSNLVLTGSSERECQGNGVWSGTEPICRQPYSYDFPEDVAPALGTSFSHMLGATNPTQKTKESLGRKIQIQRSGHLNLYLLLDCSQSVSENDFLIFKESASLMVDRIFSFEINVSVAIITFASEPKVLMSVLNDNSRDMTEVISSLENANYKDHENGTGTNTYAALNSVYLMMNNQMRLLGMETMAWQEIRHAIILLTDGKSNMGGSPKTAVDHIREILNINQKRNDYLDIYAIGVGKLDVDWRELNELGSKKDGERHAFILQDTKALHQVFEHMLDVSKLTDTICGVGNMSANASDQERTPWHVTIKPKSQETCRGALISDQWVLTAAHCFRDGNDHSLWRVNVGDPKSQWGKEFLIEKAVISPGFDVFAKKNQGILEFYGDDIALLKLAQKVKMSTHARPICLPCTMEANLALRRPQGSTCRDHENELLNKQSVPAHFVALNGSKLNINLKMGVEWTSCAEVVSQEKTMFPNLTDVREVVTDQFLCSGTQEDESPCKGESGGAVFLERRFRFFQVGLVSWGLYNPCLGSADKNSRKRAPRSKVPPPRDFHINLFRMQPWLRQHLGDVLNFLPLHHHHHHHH
Experimental: as §1, §2

B1: RF16-242 (antibody, human IgG4 S228P, lambda, V domains shown)
VH: EVQLLQSGAEVKKPGESLKISCKGSGYSFTSYWIGWVRQMPGKGLEWMGIIYPGDSDTRYSPSFQGQVTISADKSISTAYLQWSSLKASDTAMYYCARRGHYGDYFDYWGQGTLVTVSS
VL: SYELTQPPSVSVSPGQTARITCSGDALPKKYAYWYHQKSGQAPVLVIYEDRRRPSEIPERFSGSSSGTMATLTITGAQVEDEGVYFCYSRDRAGNQRVFGGGTQLTVLG
notes: pH-dependent anti-C2 antibody from a phage display library
Consider B1, for which the Kd in assay [1] stood at 104 nM; in assay [2] it was 10.7 nM; in assay [3], 7 nM.
